Patent US20030082668

T1: Boc-Val-Leu-(Ac)Lys-MCA
T1 sequence: VLK

T2: Nma-VGAK(Ac)RHSK(Dnp)-NH2
T2 sequence: VGAKRHSK

T3: Boc-Val-Leu-Lys-MCA
T3 sequence: VLK

T4: Nma-VGAK(Ac)RHSK(Dnp)-NH2
T4 chain: VGAKRHSK

B1: recombinant SIRT1 (GST fused to the amino terminal end) (protein)
chain: MADEAALALQPGGSPSAAGADREAASSPAGEPLRKRPRRDGPGLERSPGEPGGAAPEREVPAAARGCPGAAAAALWREAEAEAAAAGGEQEAQATAAAGEGDNGPGLQGPSREPPLADNLYDEDDDDEGEEEEEAAAAAIGYRDNLLFGDEIITNGFHSCESDEEDRASHASSSDWTPRPRIGPYTFVQQHLMIGTDPRTILKDLLPETIPPPELDDMTLWQIVINILSEPPKRKKRKDINTIEDAVKLLQECKKIIVLTGAGVSVSCGIPDFRSRDGIYARLAVDFPDLPDPQAMFDIEYFRKDPRPFFKFAKEIYPGQFQPSLCHKFIALSDKEGKLLRNYTQNIDTLEQVAGIQRIIQCHGSFATASCLICKYKVDCEAVRGDIFNQVVPRCPRCPADEPLAIMKPEIVFFGENLPEQFHRAMKYDKDEVDLLIVIGSSLKVRPVALIPSSIPHEVPQILINREPLPHLHFDVELLGDCDVIINELCHRLGGEYAKLCCNPVKLSEITEKPPRTQKELAYLSELPPTPLHVSEDSSSPERTSPPDSSVIVTLLDQAAKSNDDLDVSESKGCMEEKPQEVQTSRNVESIAEQMENPDLKNVGSSTGEKNERTSVAGTVRKCWPNRVAKEQISRRLDGNQYLFLPPNRYIFHGAEVYSDSEDDVLSSSSCGSNSDSGTCQSPSLEEPMEDESEIEEFYNGLEDEPDVPERAGGAGFGTDGDDQEAINEAISVKQEVTDMNYPSNKS

What was measured:
[1] = tested on: T1, Boc-Val-Leu-(Ac)Lys-MCA
[2] = tested on: T2, Nma-VGAK(Ac)RHSK(Dnp)-NH2
[3] = tested on: T3, Boc-Val-Leu-Lys-MCA
[4] = molecular target: T4, Nma-VGAK(Ac)RHSK(Dnp)-NH2

Molecule	peptide cleavage activity (fluorescence intensity of released AMC) [1]	peptide cleavage (fluorescence intensity) [2]	peptide cleavage activity (fluorescence intensity of released AMC) [3]	NAD-dependent deacetylase activity (fluorescence intensity, lysylendopeptidase-coupled assay) [4]	deacetylase activity (fluorescence intensity, lysylendopeptidase-coupled assay) [4]
lysylendopeptidase	did not cleave Boc-Val-Leu-(Ac)Lys-MCA	In the absence of recombinant SIRT1, the fluorescence intensity did not increase, namely, the fluorescent substrate was not cleaved off by LEP at all.	digested Boc-Val-Leu-Lys-MCA		
plasmin	did not cleave Boc-Val-Leu-(Ac)Lys-MCA		digested Boc-Val-Leu-Lys-MCA		
B1				the fluorescence intensity increased in an NAD concentration-dependent fashion. In the absence of NAD, regardless of the presence of the recombinant SIRT1, the fluorescence intensity did not increase	the fluorescence intensity increased was proportional to the recombinant SIRT1 concentration
